Laboratory results reported in patent US8563513 (VAN ANDEL RESEARCH INSTITUTE, dated 2013).
Where no end group is shown, it is not given here.

T1: PTH1R in cell membranes, G protein-uncoupled conformation (R0) (UniProt Q03431 27-593, limits assumed)
T1 construct: whole, on cells; Cell membranes, not intact cells; R0 state studied by including GTPγS in the reactions; also called G protein-uncoupled receptor
T1 sequence (looked up): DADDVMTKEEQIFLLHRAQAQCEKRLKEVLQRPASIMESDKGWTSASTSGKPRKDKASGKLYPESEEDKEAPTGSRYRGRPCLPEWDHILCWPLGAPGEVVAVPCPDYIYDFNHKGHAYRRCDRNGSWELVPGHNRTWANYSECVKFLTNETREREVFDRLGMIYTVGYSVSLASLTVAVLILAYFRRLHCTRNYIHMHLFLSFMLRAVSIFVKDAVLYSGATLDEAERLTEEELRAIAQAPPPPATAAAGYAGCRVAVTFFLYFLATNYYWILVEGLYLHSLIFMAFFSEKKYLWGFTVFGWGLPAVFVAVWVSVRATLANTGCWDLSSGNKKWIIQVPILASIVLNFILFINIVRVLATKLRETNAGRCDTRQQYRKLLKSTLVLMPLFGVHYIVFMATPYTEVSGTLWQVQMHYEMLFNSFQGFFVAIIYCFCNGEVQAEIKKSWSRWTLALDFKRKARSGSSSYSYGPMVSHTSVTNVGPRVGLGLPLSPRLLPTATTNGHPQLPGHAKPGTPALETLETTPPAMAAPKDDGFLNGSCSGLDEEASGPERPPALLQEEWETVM

T2: MBP-PTH1R ECD-(His)6 fusion protein (UniProt Q03431 29-187)
T2 construct: range 29-187; Expressed in E. coli, disulfide shuffled in vitro; also called MBP-PTH1R ECD-H6; MBP-PTH1R ECD fusion protein
T2 sequence: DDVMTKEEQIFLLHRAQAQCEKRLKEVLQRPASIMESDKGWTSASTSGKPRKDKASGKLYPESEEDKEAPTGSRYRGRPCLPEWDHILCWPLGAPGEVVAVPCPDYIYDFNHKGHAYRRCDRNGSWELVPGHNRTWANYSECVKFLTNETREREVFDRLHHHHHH

T3: hPTH1R transiently expressed in COS-1 cells (human, UniProt Q03431 27-593)
T3 sequence (looked up): T1 sequence (looked up)

B1: PTHrP(1-34)NH2 [F23′W/L27′K/I28′L/I31′V] (peptide)
peptide: AVSEHQLLHDKGKSIQDLRRRFWLHHKLAEVHTA-NH2
B2: PTH(1-34)NH2 [K27L/V31I] (peptide)
peptide: SVSEIQLMHNLGKHLNSMERVEWLRKLLQDIHNF-NH2
B3: PTH(1-34)NH2 [W23F] (peptide)
peptide: SVSEIQLMHNLGKHLNSMERVEFLRKKLQDVHNF-NH2
B4: PTH(1-34)[K27L]NH2 (peptide)
peptide: SVSEIQLMHNLGKHLNSMERVEWLRKLLQDVHNF-NH2
notes: also called 07-12-12-07-SBSL
B5: PTH(1-34)NH2 [W23F/K27L] (peptide)
peptide: SVSEIQLMHNLGKHLNSMERVEFLRKLLQDVHNF-NH2
B6: PTH(1-34)NH2 [L28I/V31I] (peptide)
peptide: SVSEIQLMHNLGKHLNSMERVEWLRKKIQDIHNF-NH2
B7: PTH(1-34)NH2 [W23′F/V31′I] (peptide)
peptide: SVSEIQLMHNLGKHLNSMERVEFLRKKLQDIHNF-NH2
notes: also called PTH(W23′F/V31′I)
B8: PTH(1-34)NH2 [W23F/K27L/L28I/V31I] (peptide)
peptide: SVSEIQLMHNLGKHLNSMERVEFLRKLIQDIHNF-NH2
B9: PTH(1-34)NH2 [V31I] (peptide)
peptide: SVSEIQLMHNLGKHLNSMERVEWLRKKLQDIHNF-NH2
B10: PTH(1-34)NH2 [L28I] (peptide)
peptide: SVSEIQLMHNLGKHLNSMERVEWLRKKIQDVHNF-NH2
B11: PTH(1-34)NH2 [W23F/L28I] (peptide)
peptide: SVSEIQLMHNLGKHLNSMERVEFLRKKIQDVHNF-NH2
B12: PTHrP(12-34)OH (peptide)
peptide: GKSIQDLRRRFFLHHLIAEIHTA-OH
notes: Free C-terminal carboxylic acid
B13: PTHrP(12-34)NH2 (peptide)
peptide: GKSIQDLRRRFFLHHLIAEIHTA-NH2
notes: also called C-terminally amidated 12-34 fragment of PTHrP
B14: PTH(12-34)NH2 (peptide)
peptide: GKHLNSMERVEWLRKKLQDVHNF-NH2

The binders below were run against T1, PTH1R in cell membranes, G … (assay: competition binding, PTH1R in cell membranes, R0 state (GTPγS), n = 3).
In the case of B1, the IC50 is reported as 41 nM and the “IC50 Log M” value is reported as -7.4 Log M. For B2, the IC50 was 25 nM and the “IC50 Log M” value was -7.6 Log M. For B3, the IC50 was 13.5 nM and the “IC50 Log M” value was -7.9 Log M. B4 was tested, and the IC50 was 6.4 nM and the “IC50 Log M” value was -8.2 Log M. B5 was tested, and the IC50 was 8.7 nM and the “IC50 Log M” value was -8.1 Log M. With B6 the IC50 was 42 nM and the “IC50 Log M” value was -7.4 Log M. B7 was tested, and the IC50 was 81 nM and the “IC50 Log M” value was -7.1 Log M. For B8, the IC50 was 53 nM and the “IC50 Log M” value was -7.3 Log M. For B9, the IC50 was 34 nM and the “IC50 Log M” value was -7.5 Log M. B10 was tested, and the IC50 was 4.5 nM and the “IC50 Log M” value was -8.4 Log M. B11 was tested, and the IC50 was 38 nM and the “IC50 Log M” value was -7.4 Log M.

The binders below were run against T1, PTH1R in cell membranes, G … (assay: ratio of IC50 at R0 to IC50 at RG, cell membranes).
B1 gave an RO/RG of 586 fold. B2 was tested, and the RO/RG was 36.8 fold. B3 gave an RO/RG of 59 fold. Binder B4 has an RO/RG of 11.9 fold. Binder B5 has an RO/RG of 26.4 fold. With B6 the RO/RG was 135 fold. In the case of B7, the RO/RG is reported as 386 fold. For B8, the RO/RG was 68 fold. B9 gave an RO/RG of 110 fold. Binder B10 has an RO/RG of 45 fold. B11 gave an RO/RG of 190 fold.

These binders were tested against T2, MBP-PTH1R ECD-(His)6 fusion protein (assay: AlphaScreen competition; competitor titrated against biotin-PTH(7-34)NH2 (23 nM) on MBP-PTH1R ECD (23 nM) [panel B]).
Method: (§1) ECD-peptide binding assays. The binding of peptides to the MBP-PTH1R ECD-H6 fusion protein was assessed using an AlphaScreen assay (Perkin-Elmer). […] The pre-coupling reactions were mixed, un-labeled competitor peptides were added as indicated, and the reactions were incubated 4 to 5 hrs to reach equilibrium. Photon counts were recorded in 384-well optiplates using an Envision 2104 plate reader (Perkin-Elmer). Prism 5.0 software (GraphPad Software, San Diego) was used to fit the data to a fixed-slope dose-response inhibition equation for determination of IC50 values. Real-time analysis of the binding of peptides to the isolated PTH1R ECD using the Octet Red system (ForteBio) was performed as described in below.
In the case of B12, the “IC50 (read off the curve)” value is reported as about 2000 nM. For B13, the “IC50 (read off the curve)” value was about 1000 nM.

These binders were tested against T3, hPTH1R transiently expressed in COS-1 … (assay: cell-based or functional assay).
With B7 the “EC50, cAMP accumulation dose-response” value was 0.0415 nM and the “maximal cAMP level relative to wt peptide” value was about 80%.

These binders were tested against T4, PTH1R in cell membranes, G protein-coupled conformation (RG) (UniProt Q03431 27-593) (assay: competition binding, PTH1R in cell membranes, RG state (dominant negative Gαs), n = 3).
T4 construct: whole, on cells; Cell membranes, not intact cells; RG state studied by co-expressing the receptor with dominant negative Gαs; also called G protein-coupled receptor
With B1 the IC50 was 0.07 nM and the “IC50 Log M” value was -10.1 Log M. With B2 the IC50 was 0.68 nM and the “IC50 Log M” value was -9.3 Log M. For B3, the IC50 was 0.23 nM and the “IC50 Log M” value was -9.7 Log M. In the case of B4, the IC50 is reported as 0.54 nM and the “IC50 Log M” value is reported as -9.3 Log M. For B5, the IC50 was 0.33 nM and the “IC50 Log M” value was -9.6 Log M. With B6 the IC50 was 0.31 nM and the “IC50 Log M” value was -9.6 Log M. B7 was tested, and the IC50 was 0.21 nM and the “IC50 Log M” value was -9.7 Log M. B8 was tested, and the IC50 was 0.78 nM and the “IC50 Log M” value was -9.2 Log M. For B9, the IC50 was 0.31 nM and the “IC50 Log M” value was -9.6 Log M. In the case of B10, the IC50 is reported as 0.1 nM and the “IC50 Log M” value is reported as -10 Log M. B11 was tested, and the IC50 was 0.2 nM and the “IC50 Log M” value was -9.7 Log M.

These binders were tested against T2, MBP-PTH1R ECD-(His)6 fusion protein (assay: AlphaScreen competition; competitor titrated against biotin-PTH(7-34)NH2 (23 nM) on MBP-PTH1R ECD (23 nM) [panel A]).
Method: as §1
In the case of B14, the “IC50 (read off the curve)” value is reported as about 800 nM.

The binders below were run against T2, MBP-PTH1R ECD-(His)6 fusion protein (assay: AlphaScreen competition against biotin-PTH(7-34)NH2 (23 nM) for MBP-PTH1R ECD-H6 (23 nM)).
Method: as §1
B12 showed an IC50 of about 2000 nM. In the case of B14, the IC50 is reported as about 1000 nM. Work on B13 yielded an IC50 of about 2000 nM.
